The target of assay [1] is T1, mouse GP130 extracellular domain expressed with a C-terminal myc-myc-hexahistidine tag (mouse, UniProt Q00560 23-617).
T1 construct: monomeric; also called mGP130-mmH; mGP130-MMH
Kind of assay: SPR. As to the method: (§1) Equilibrium dissociation constant (KD) for different GP130 reagents binding to purified anti-GP130 monoclonal antibodies were determined using a real-time surface plasmon resonance based Biacore 4000 biosensor. All binding studies were performed in 10 mM HEPES, 150 mM NaCl, 3 mM EDTA, and 0.05% v/v Surfactant Tween-20, pH 7.4 (HBS-ET) running buffer at 25° C. and 37° C. The Biacore sensor surface was first derivatized by amine coupling with a monoclonal mouse anti-human Fc antibody (GE, #BR-1008-39) to capture anti-GP130 monoclonal antibodies. […] Reagents tagged with “mmH” are monomeric, whereas reagents tagged with “mFc” are dimeric. Thus, for example, “hGP130-mmH” is also referred to as “monomeric human GP130,” and “hGP130-mFc” is also referred to as “dimeric human GP130.”
(§2) The association rate (k a) and dissociation rate (kd) were determined by fitting the real-time binding sensorgrams to a 1:1 binding model with mass transport limitation using Scrubber 2.0c curve-fitting software. Binding dissociation equilibrium constant (KD) and dissociative half-life (t ½) were calculated from the kinetic rates as: […]
In general terms: Surface plasmon resonance follows binding to a sensor surface in real time, without labels.

Assay [2] has as its target T2, human GP130 extracellular domain expressed with a C-terminal myc-myc-hexahistidine tag (human, UniProt P40189 23-619).
T2 construct: monomeric; also called hGP130-mmH; hGP130-MMH
Kind of assay: SPR 25C, mAb captured, hGP130-MMH injected. As to the method: as §1, §2

Assay [3] concerns the target T3, human GP130 delta D1-D3 expressed with a C-terminal myc-myc hexahistidine tag (human, UniProt P40189 329-619).
T3 construct: CHO supernatant, captured on anti-myc microspheres; also called human GP130 delta D1-D3-MMH
Kind of assay: Luminex, myc-captured antigen. As to the method:
Aliquots of microspheres with immobilized anti-myc monoclonal antibodies, prepared as described above, were added individually to 1 mL of the each of these protein supernatants and to 500 uL of purified GP130 protein. The microspheres were gently mixed, incubated for two hours at 25° C., washed twice with 1 mL of DBPS, centrifuged to remove the supernatant and finally resuspended in 1 mL of DPBS buffer. Forty eight μL of anti-myc IgG coupled microspheres from individual reactions with full length human GP130 and with each of the human GP130 domain proteins were withdrawn and mixed together in 3.6 mL of PBS+20 mg/mL BSA+0.05% sodium azide (blocking buffer).
From this mixed pool, 75 μL of microspheres were plated per well on a 96 well filter plate (Millipore, Cat. No: MSBVN1250) and mixed with 25 μL of individual anti-human GP130 monoclonal antibodies (0.5 or 5 μg/mL), incubated for two hours at 25° C. and then washed twice with 200 μL of DPBS with 0.05% Tween 20 (washing buffer). To detect and quantify the amounts of bound anti-GP130 antibody levels to individual microspheres, either 100 μL of 2.5 μg/mL R-Phycoerythrin conjugated goat F(ab′)2 anti-human kappa (Southern Biotech, Cat #2063-09) in blocking buffer, was added and incubated for 30 minutes at 25° C. After 30 minutes, the samples were washed twice with 200 μL of washing buffer and resuspended in 150 μL of wash buffer. The Median Fluorescence intensity (MFI) of the microspheres was measured in a Luminex Analyzer.

Assay [4] concerns the target T4, mouse GP130 extracellular domain expressed with a C-terminal myc-myc-hexahistidine tag (mGP130-mmH) (mouse, UniProt Q00560 23-617).
T4 construct: Monomeric; the entry includes the myc-myc-His tag
Kind of assay: SPR Biacore, mAb captured via anti-hFc, 25 C. The protocol:
as §1, §2

Assay [5] addresses T5, rat GP130 extracellular domain expressed with a C-terminal myc-myc-hexahistidine tag (rGP130-mmH) (rat, UniProt P40190 23-618).
T5 construct: Monomeric; the entry includes the myc-myc-His tag
The assay can be described thus: SPR Biacore, mAb captured via anti-hFc, 25 C. The protocol: as §1, §2

Assay [6] concerns the target T6, human GP130 extracellular domain expressed with a C-terminal mouse IgG2a Fc tag (hGP130-mFc) (human).
T6 construct: also called dimeric human GP130
T6 chain: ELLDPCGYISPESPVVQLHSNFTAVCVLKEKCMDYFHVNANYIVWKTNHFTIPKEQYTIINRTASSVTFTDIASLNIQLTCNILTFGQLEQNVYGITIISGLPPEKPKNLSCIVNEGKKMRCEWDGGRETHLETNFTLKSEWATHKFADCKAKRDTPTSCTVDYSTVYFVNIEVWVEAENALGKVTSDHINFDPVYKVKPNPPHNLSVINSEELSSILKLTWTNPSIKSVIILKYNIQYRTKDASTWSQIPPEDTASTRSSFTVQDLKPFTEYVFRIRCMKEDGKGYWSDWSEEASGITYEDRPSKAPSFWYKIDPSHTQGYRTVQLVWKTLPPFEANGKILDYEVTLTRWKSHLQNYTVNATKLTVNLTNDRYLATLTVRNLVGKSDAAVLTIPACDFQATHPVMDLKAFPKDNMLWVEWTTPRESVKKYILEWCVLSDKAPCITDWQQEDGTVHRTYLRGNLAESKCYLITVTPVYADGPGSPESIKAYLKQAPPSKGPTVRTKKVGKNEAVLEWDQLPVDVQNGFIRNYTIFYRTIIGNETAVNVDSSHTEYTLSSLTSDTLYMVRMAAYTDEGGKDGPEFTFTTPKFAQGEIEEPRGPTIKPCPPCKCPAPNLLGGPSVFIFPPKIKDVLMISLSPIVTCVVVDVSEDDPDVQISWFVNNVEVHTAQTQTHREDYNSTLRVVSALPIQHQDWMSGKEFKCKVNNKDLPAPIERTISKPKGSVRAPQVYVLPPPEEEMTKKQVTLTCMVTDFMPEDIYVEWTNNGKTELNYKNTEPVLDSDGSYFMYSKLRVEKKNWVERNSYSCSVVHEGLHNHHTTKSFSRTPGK
Kind of assay: SPR Biacore, mAb captured via anti-hFc, 25 C. As to the method: as §1, §2

In assay [7] the target is T4, mouse GP130 extracellular domain …. The assay can be described thus: SPR Biacore, mAb captured via anti-hFc, 37 C. As to the method:
as §1, §2

For assay [8], the target named is T5, rat GP130 extracellular domain …. Kind of assay: SPR Biacore, mAb captured via anti-hFc, 37 C. The protocol:
as §1, §2

Assay [9] addresses T6, human GP130 extracellular domain …. The assay can be described thus: SPR Biacore, mAb captured via anti-hFc, 37 C. The protocol: as §1, §2

T3 sequence (P40189 other isoform, or with tags, fused parts or gaps mutant limits assumed): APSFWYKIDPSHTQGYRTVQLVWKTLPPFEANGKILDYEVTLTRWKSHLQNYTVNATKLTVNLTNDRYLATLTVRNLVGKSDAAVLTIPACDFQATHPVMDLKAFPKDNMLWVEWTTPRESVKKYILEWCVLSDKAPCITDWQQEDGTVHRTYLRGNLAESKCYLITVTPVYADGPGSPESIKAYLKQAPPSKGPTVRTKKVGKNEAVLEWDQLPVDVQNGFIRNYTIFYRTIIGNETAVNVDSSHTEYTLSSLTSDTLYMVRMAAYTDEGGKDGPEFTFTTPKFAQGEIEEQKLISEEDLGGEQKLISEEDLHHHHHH
T4 sequence (Q00560 other isoform, or with tags, fused parts or gaps): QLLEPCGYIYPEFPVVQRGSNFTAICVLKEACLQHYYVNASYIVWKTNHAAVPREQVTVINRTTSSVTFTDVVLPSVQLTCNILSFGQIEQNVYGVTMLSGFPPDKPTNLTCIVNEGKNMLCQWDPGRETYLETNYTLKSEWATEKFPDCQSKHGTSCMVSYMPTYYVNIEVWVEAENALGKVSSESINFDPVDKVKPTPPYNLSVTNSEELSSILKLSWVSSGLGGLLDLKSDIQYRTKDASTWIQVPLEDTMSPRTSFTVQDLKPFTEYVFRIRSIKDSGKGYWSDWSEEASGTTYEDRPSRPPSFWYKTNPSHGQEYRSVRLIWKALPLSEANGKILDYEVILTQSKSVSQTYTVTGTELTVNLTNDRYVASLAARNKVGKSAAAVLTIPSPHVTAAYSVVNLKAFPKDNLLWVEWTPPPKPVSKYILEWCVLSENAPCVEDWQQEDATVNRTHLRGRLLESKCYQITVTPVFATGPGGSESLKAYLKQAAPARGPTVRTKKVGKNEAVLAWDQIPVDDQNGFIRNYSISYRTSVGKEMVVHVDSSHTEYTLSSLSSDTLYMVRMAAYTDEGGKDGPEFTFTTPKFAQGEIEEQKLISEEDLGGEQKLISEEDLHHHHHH
T1 sequence (Q00560 other isoform, or with tags, fused parts or gaps): as above
T5 sequence (P40190 other isoform, or with tags, fused parts or gaps): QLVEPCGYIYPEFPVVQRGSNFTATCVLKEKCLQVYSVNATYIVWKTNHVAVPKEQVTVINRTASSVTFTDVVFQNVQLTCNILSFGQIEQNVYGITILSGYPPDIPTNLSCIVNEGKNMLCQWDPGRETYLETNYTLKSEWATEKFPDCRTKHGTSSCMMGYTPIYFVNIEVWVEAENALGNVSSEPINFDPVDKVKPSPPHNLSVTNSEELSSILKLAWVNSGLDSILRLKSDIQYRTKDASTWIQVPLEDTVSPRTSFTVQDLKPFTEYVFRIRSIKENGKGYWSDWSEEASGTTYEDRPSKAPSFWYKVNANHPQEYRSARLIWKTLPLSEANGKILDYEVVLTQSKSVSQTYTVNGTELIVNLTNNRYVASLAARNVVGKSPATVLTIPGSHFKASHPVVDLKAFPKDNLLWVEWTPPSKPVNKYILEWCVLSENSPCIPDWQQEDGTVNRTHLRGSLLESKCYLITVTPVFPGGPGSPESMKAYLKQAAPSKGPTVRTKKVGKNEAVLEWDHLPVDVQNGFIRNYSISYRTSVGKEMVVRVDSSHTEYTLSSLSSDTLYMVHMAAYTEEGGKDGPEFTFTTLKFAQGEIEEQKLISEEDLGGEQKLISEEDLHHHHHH

B1: MAb16618 (antibody, V domains shown)
VH: QVQLQESGPGLVKPSETLSLTCTVSGGSISNYYWTWIRQPPGKGLEWIGHISNSGTTNYNPSLKSRVTISVDTSKNQFSLKLTSVTAADTAVYYCARLPLGIAAVDTDYYYYFGMDVWGQGTTVTVSS
VL: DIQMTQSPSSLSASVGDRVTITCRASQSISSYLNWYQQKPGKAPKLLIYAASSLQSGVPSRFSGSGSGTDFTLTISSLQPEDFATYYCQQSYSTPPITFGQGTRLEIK
Usually Kd stands for a measure of binding affinity in units of concentration. Low values mean tighter binding, high ones weaker binding. One may read the koff as the rate constant with which the complex falls apart. A high value points to a short-lived complex. As usually defined, the kon is a measure of how fast the partners come together. One may read the t½ as how long it takes for the measured level to halve. Read a high t½ as slow decline. Regarding B1, the binding result in assay [1] is “no binding (tested: 100 nM)”. In assay [2], the “100 nM Ag Bound (RU)” value was found to be 52 RU, binding was characterised by a dissociation constant (Kd) of 120 nM, the koff was 0.0425 s⁻¹ and the kon amounted to 354000 M⁻¹ s⁻¹. Also, the t½ in [2] was determined as 0.3 min. The binding result in [3] is reported as “no binding (tested: 0.5 or 5 µg/mL)”.

B2: MAb16682 (antibody, V domains shown)
VH: EVQLVESGGGLVQPGGSLRLSCAASGFTFSTYWMNWVRQAPGKGLEWVANIKEDGSEKYYVDSVKGRFTISRDNAKNSLYLQMNSLRAEDTAVYYCAREGFGVVTYIWGQGTMVTVSS
VL: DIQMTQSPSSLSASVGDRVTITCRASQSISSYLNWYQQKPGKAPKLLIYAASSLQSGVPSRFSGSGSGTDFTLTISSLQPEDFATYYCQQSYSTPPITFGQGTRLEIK
notes: captured through anti-human Fc
In the case of B2, the “100 nM Ag Bound (RU)” value in assay [4] stood at 1 RU. For the same molecule, in assay [5], the “100 nM Ag Bound (RU)” value was 0 RU and the binding result is given as “no binding (tested: 100 nM)”. Moreover, in assay [6], the “100 nM Ag Bound (RU)” value was 126 RU; the affinity, expressed as Kd, was 2.1 nM; the dissociation rate constant (koff) amounted to 0.000361 s⁻¹; the kon was 172000 M⁻¹ s⁻¹. In addition, in assay [6], the t½ was determined as 32 min. Besides, in [7], the “100 nM Ag Bound (RU)” value was determined as 0 RU and the binding result is recorded as “no binding (tested: 100 nM)”. Further, the “100 nM Ag Bound (RU)” value in assay [8] is 1 RU. For the same molecule, in assay [9], the “100 nM Ag Bound (RU)” value is 130 RU, the Kd is 8.33 nM, the koff stood at 0.00196 s⁻¹ and the kon was 236000 M⁻¹ s⁻¹. In addition, the t½ in [9] turned out to be 6 min.

B3: MAb16680 (antibody, V domains shown)
VH: QVQLQQSGPGQMKSSQTLTLTCAISGDSVSSNSAIWYWIRQSPSRGLEWLGRTKFRSKWYNDFALSMKSRITINPDTSKNQFSLHLNSVTPEDTAVYYCARYKWELYFDYWGQGTLVTVSS
VL: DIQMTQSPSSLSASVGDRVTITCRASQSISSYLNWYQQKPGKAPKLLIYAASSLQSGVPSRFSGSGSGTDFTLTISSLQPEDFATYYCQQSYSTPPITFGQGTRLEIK
For B3, the binding result in assay [1] was “no binding (tested: 100 nM)”.

B4: MAb16669 (antibody, V domains shown)
VH: EVQLVESGGGLVQPGGSLRLSCAASGFTFSSYAMNWVRQAPGKGLEWVSAISGSGDSTYYTDSVKGRFTISRDNSKNTLYLQMNTLRAEDTAVYYCAKEEIVMLVGATPGWFDPWGQGTLVTVSS
VL: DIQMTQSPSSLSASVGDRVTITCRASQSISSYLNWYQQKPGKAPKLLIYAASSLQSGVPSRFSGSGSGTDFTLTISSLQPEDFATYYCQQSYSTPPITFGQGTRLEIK
Consider B4, for which, in [1], the binding result was “no binding (tested: 100 nM)”. Besides, in assay [2], the “100 nM Ag Bound (RU)” value came to 17 RU, binding was characterised by a dissociation constant (Kd) of 35.4 nM, the koff stood at 0.000403 s⁻¹ and the kon is 11400 M⁻¹ s⁻¹. In addition, the t½ in assay [2] was found to be 29 min.

B5: MAb16622 (antibody, V domains shown)
VH: EVQLVESGGGVVRPGGSLRLSCTASGFTFDDYGMSWVRQAPGKGLEWVSGINWNGGRTEYADAVKGRFIISRDNAKNSLYLQMNSLRAEDTALYFCARTELRWDYWGQGTLVTVSS
VL: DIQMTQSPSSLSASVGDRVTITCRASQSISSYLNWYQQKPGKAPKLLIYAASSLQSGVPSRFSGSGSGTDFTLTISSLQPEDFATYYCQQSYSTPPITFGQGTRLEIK
Take B5: the binding result in assay [1] is “no binding (tested: 100 nM)”. Besides, in assay [2], the “100 nM Ag Bound (RU)” value amounted to 36 RU, the Kd stood at 203 nM, the koff stood at 0.0243 s⁻¹ and the kon was 120000 M⁻¹ s⁻¹. The molecule further returned a t½ in assay [2] of 0.5 min. Further, the binding result in assay [3] is “no binding (tested: 0.5 or 5 µg/mL)”.

B6: MAb16614 (antibody, V domains shown)
VH: QVQLVESGGGVVQPGGSLRLSCAASGFTFSTYDIHWVRQAPGKGLEWVAVISFDGSNRNYGDSVKGRFTISRDNSDNTLFLEMNNLRFEDTAVYYCAKEGYGVDFQHWGQGTLVTVSS
VL: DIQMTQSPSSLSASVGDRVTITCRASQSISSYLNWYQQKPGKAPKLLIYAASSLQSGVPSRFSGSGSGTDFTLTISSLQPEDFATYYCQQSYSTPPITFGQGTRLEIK
On to B6, for which the binding result in assay [1] is reported as “no binding (tested: 100 nM)”. In assay [2], the “100 nM Ag Bound (RU)” value is 18 RU; the affinity, expressed as Kd, was 183 nM; the koff was 0.0101 s⁻¹; the kon is 55200 M⁻¹ s⁻¹. Moreover, in [2], the t½ is 1.1 min. Also, in assay [3], the binding result was “no binding (tested: 0.5 or 5 µg/mL)”.

B7: MAb16683 (antibody, V domains shown)
VH: QVQLVESGGGLVKPGGSLRLSCAASGFTFSDYYMTWIRQTPGKGLDWVSYISSSGTNKYNADSVKGRFTISRDNAKNSLYLQMNSLRAEDTAVYYCVRDPPWGMDVWGQGTTVTVSS
VL: not shown
As for B7, the binding result in assay [1] was “no binding (tested: 100 nM)”. In assay [2], the “100 nM Ag Bound (RU)” value is 54 RU, binding was put at a Kd of 46.7 nM, the koff was 0.00325 s⁻¹ and the kon was 69700 M⁻¹ s⁻¹. The molecule further displayed a t½ in [2] of 4 min.

B8: MAb16683 (antibody, V domains shown)
VH: B7 VH
VL: not shown
notes: as for B2
As to B8, the “100 nM Ag Bound (RU)” value was 0 RU in assay [4]; 0 RU in assay [5]; 107 RU in assay [6]; 0 RU in assay [7]; 0 RU in assay [8]; 111 RU in [9]. In addition, the binding result in [5] and in assay [7] was “no binding (tested: 100 nM)” throughout. The Kd in assay [6] is 1.86 nM; in [9], 5.8 nM. The koff is 0.000311 s⁻¹ in assay [6] and 0.00114 s⁻¹ in assay [9]. In addition, the kon in assay [6] worked out at 167000 M⁻¹ s⁻¹; in assay [9], 196000 M⁻¹ s⁻¹. Also, the values for the t½ in assay [6] and in [9] were 37 min and 10 min, respectively.

B9: MAb16623 (antibody, V domains shown)
VH: EVQLVESGGGLVQPGGSLRLSCAASGLTFSSYEMNWVRQAPGKGLEWVSHISSAGSTKYYADSVKGRFTISRDNAKNSLFLQMNSLRAEDTAIYYCAGYNYAYYYFGVDVWGQGTTVTVSS
VL: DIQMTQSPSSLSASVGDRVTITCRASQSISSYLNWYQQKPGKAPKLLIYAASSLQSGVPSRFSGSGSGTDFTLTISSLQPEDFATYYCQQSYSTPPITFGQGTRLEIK
For B9, the binding result in assay [1] is “no binding (tested: 100 nM)”. For the same molecule, in assay [2], the “100 nM Ag Bound (RU)” value was determined as 77 RU, the Kd worked out at 21 nM, the off-rate constant (koff) came to 0.00377 s⁻¹ and the kon stood at 180000 M⁻¹ s⁻¹. For the same molecule, in [2], the t½ turned out to be 3 min.
